Reference: patent US20230052153A1 (NEWSOUTH INNOVATIONS, published 2023)

T1: human FcγRIIa receptor (human, UniProt P12318 34-317)
T1 construct: whole, on cells; also called CD32
T1 sequence (looked up): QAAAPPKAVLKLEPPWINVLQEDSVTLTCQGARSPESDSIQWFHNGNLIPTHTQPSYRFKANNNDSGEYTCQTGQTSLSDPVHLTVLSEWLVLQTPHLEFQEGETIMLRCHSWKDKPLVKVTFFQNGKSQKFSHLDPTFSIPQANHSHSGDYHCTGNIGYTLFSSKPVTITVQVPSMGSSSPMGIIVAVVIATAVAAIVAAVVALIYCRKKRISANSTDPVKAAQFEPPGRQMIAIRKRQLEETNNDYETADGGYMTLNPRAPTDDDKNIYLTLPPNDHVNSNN


Molecular target: T1, human FcγRIIa receptor
Assay: flow cytometry on human platelets, 2 µM scFv, detected with anti-c-Myc-AF-488
Method: Platelet-rich plasma (PRP) was obtained from whole blood after centrifugation at 200×g for 10 minutes. Washing/Suspension buffer (PBS, 0.5% BSA, 25 mM EDTA, pH 6.8) was used for platelet preparation throughout the experiment. 4 μl of PRP was incubated with HRU molecules (2 μM) for 30 minutes. Cells were washed once with 500 μl of buffer (PBS, 0.5% BSA, 25 mM EDTA, pH 6.8) and incubated with anti-c-Myc-AF-488. After washing, platelets were suspended in 200 μl of PBS and analyzed by flow cytometry (CantoII, BD Biosciences). Anti-c-Myc-AF-488 in the absence of HRU was used as negative control.

Binder	binding result
HRU2 (HRU1 linked to bivalirudin) (scFv, scFv fused to bivalirudin; also called H2) scFv: EVKLVESGPELKKPGETVKISCKASGYTFTNYGMNWVKQAPGKGLKWMGWLNTYTGESIYPDDFKGRFAFSLETSASTAYLQINNLKSEDTATYFCARGDYGYDDPLDYWGQGTSVTVSSGGGGSGGGGSGGGGSDIVMTQAPPSVPVTPGESVSISCRSSKSLLHTNGNTYLHWFLQRPGQSPRLLIYRMSVLASGVPDRFSGSGSGTAFTLSISRVEAEDVGVYYCMQHLEYPLTFGAGTKLEIKRAGGGGSGGGGSGGGGFPRPGGGGNGDFEEIPEEYL	binds
HRU4 (HRU1 with mutations) (scFv, also called H4) scFv: EVQLVESGPELKKPGETVKISCKASGYTFTNYGMNWVKQAPGKGLKWMGWLNTYTGESIYPDDFKGRFAFSLETSASTAYLQINNLKSEDTATYFCARGDYGYDDPLDYWGQGTSVTVSSGGGGSGGGGSGGGGSDIVMTQAPPSVPVTPGESVSISCRSSKSLLHTNGNTYLHWFLQKPGQSPRLLIYRMSVLASGVPDRFSGSGSGTDFTLKISRVEAEDVGVYYCMQHLEYPLTFGAGTKLEIKRAEQKLISEEDL	binds
